Laboratory results published in US20160194394A1 (GOVERNING COUNCIL OF THE UNIVERSITY OF TORONTO, published 2016).

How the values were obtained:
[1] = molecular target: T1, recombinant Frizzled receptor 7 (FZD7) cysteine-rich domain (CRD) fused to the Fc region of human IgG (human, UniProt O75084 33-185); experiment: ELISA, 10ug/ml (200nM) Fab [cont'd]
Procedure: (§1) FIG. 2B is a table depicting the binding of purified Fabs to purified FZD7-Fc measured by ELISA. Fabs purified from 25 ml bacterial cultures were assayed for binding to FZD7-Fc fusion protein (R&D systems) and Fc protein. ELISA plates (384 well) were coated with 2 ug/ml of protein in PBS overnight at four degrees. Wells were blocked with 0.5% BSA/PBS for 1 hour at room temperature, washed three times with 0.05% Tween20/PBS (wash buffer), and then primary dilutions of Fabs in 0.5% BSA/0.05% Tween20/PBS (dilution buffer) were added at indicated concentrations. Fabs were incubated for 1 hour at room temperature, wells were washed six times, and anti-FLAG-HRP (Sigma) was added at 1:5000 in dilution buffer. Secondary antibody was incubated for 45 minutes at room temperature, and wells were washed six times and developed with TMB substrate with an acid stop. The absorbance at 450 nm was read. n.t.=not tested.

Fc control protein [2] = molecular target: T2, Fc control protein; experiment: ELISA, 10ug/ml (200nM) Fab [cont'd]
T2 construct: also called Fc protein; control Fc protein
Procedure: as §1

[3] = molecular target: T3, FZD7 receptor expressed on cells (full-length) (UniProt O75084 33-574, limits assumed); experiment: flow cytometry, 200 nM Fab, MDA MB 231 [cont'd]
T3 construct: whole, on cells; MDA MB 231 cells may carry other Frizzled receptors too; also called full-length FZD7 receptor; endogenous receptor on MDA MB 231 cells
Procedure: (§2) FIG. 3 is a table depicting the binding of the purified Fabs to cells expressing FZD7 (flow cytometry). Small scale Fabs were assayed for binding to full-length FZD7 receptor to an over-expression line in MDA MB 231 cells. In parallel, Fabs were assayed for binding to endogenous receptor expressed on the MDA MB 231 cells. Cells were harvested using an EDTA solution, blocked in 2% FBS/PBS (stain buffer), and stained with 200 nM Fab for 30 min on ice. Cells were washed two times with stain buffer and incubated with anti-F(ab′)₂-APC secondary antibody (Jackson Immuno) at 1:1000 for 15 minutes on ice. All antibodies were diluted in stain buffer. Cells were washed three times with stain buffer and then fixed with 1% paraformaldehye for analysis by flow cytometry. […] The percent of the cell population within the positive gates is indicated.

[4] = molecular target: T3, FZD7 receptor expressed on cells …; experiment: flow cytometry, 200 nM Fab, FZD7 over-expression line (MDA MB 231) [cont'd]
Procedure: as §2

[5] = molecular target: T1, recombinant Frizzled receptor 7 (FZD7) …; experiment: ELISA, 1ug/ml (20nM) Fab [cont'd]
Procedure: as §1

Fc control protein [6] = molecular target: T2, Fc control protein; experiment: ELISA, 1ug/ml (20nM) Fab [cont'd]
Procedure: as §1

[7] = molecular target: T1, recombinant Frizzled receptor 7 (FZD7) …; experiment: ELISA, 1ug/ml (20nM) Fab
Procedure: as §1

Fc control protein [8] = molecular target: T2, Fc control protein; experiment: ELISA, 1ug/ml (20nM) Fab
Procedure: as §1

[9] = molecular target: T1, recombinant Frizzled receptor 7 (FZD7) …; experiment: ELISA, 10ug/ml (200nM) Fab
Procedure: as §1

Fc control protein [10] = molecular target: T2, Fc control protein; experiment: ELISA, 10ug/ml (200nM) Fab
Procedure: as §1

[11] = molecular target: T3, FZD7 receptor expressed on cells …; experiment: flow cytometry, 200 nM Fab, MDA MB 231
Procedure: as §2

[12] = molecular target: T3, FZD7 receptor expressed on cells …; experiment: flow cytometry, 200 nM Fab, FZD7 over-expression line (MDA MB 231)
Procedure: as §2

Binder | OD 450 [1] | OD 450 (Fc control protein [2]) | % population within the positive gate [3] | % population within the positive gate [4] | OD 450 [5] | OD 450 (Fc control protein [6]) | OD 450 [7] | OD 450 (Fc control protein [8]) | OD 450 [9] | OD 450 (Fc control protein [10]) | % population within the positive gate [11] | % population within the positive gate [12]
H8 (Fab, selection round 2; also called Fzd7-R2-H8) light: DIQMTQSPSSLSASVGDRVTITCRASQSVSSAVAWYQQKPGKAPKLLIYSASSLYSGVPSRFSGSRSGTDFTLTISSLQPEDFATYYCQQSFYWGYPPFTFGQGTKVEIKRTVAAPSVFIFPPSDSQLKSGTASVVCLLNNFYPREAKVQWKVDNALQSGNSQESVTEQDSKDSTYSLSSTLTLSKADYEKHKVYACEVTHQGLSSPVTKSFNRGECGGS heavy: EVQLVESGGGLVQPGGSLRLSCAASGFNIYSSSIHWVRQAPGKGLEWVASIYSYYGYTYYADSVKGRFTISADTSKNTAYLQMNSLRAEDTAVYYCARWYAFDYWGQGTLVTVSSASTKGPSVFPLAPSSKSTSGGTAALGCLVKDYFPEPVTVSWNSGALTSGVHTFPAVLQSSGLYSLSSVVTVPSSSLGTQTYICNVNHKPSNTKVDKKVEPKSC | 2.7 | 0.08 | 1.1% | 79.6% | 0.78 | 0.06 |  |  |  |  |  | 
A7 (Fab, selection round 2; also called Fzd7-R2-A7) light: DIQMTQSPSSLSASVGDRVTITCRASQSVSSAVAWYQQKPGKAPKLLIYSASSLYSGVPSRFSGSRSGTDFTLTISSLQPEDFATYYCQQYHYGYYPFTFGQGTKVEIKRTVAAPSVFIFPPSDSQLKSGTASVVCLLNNFYPREAKVQWKVDNALQSGNSQESVTEQDSKDSTYSLSSTLTLSKADYEKHKVYACEVTHQGLSSPVTKSFNRGECGGS heavy: EVQLVESGGGLVQPGGSLRLSCAASGFNLSSSYIHWVRQAPGKGLEWVAYIYSSYGSTYYADSVKGRFTISADTSKNTAYLQMNSLRAEDTAVYYCARASWWAIDYWGQGTLVTVSSASTKGPSVFPLAPSSKSTSGGTAALGCLVKDYFPEPVTVSWNSGALTSGVHTFPAVLQSSGLYSLSSVVTVPSSSLGTQTYICNVNHKPSNTKVDKKVEPKSC | 3.22 | 0.07 | 96.3% | 92.7% | 3.19 | 0.07 |  |  |  |  |  | 
G1 (Fab, selection round 2; same four CDRs as Fzd7-R2-G12 (f18); also called Fzd7-R2-G1) light: DIQMTQSPSSLSASVGDRVTITCRASQSVSSAVAWYQQKPGKAPKLLIYSASSLYSGVPSRFSGSRSGTDFTLTISSLQPEDFATYYCQQWGYGALITFGQGTKVEIKRTVAAPSVFIFPPSDSQLKSGTASVVCLLNNFYPREAKVQWKVDNALQSGNSQESVTEQDSKDSTYSLSSTLTLSKADYEKHKVYACEVTHQGLSSPVTKSFNRGECGGS heavy: EVQLVESGGGLVQPGGSLRLSCAASGFNISYSSIHWVRQAPGKGLEWVASIYPSPGYTSYADSVKGRFTISADTSKNTAYLQMNSLRAEDTAVYYCARHGWYGLDYWGQGTLVTVSSASTKGPSVFPLAPSSKSTSGGTAALGCLVKDYFPEPVTVSWNSGALTSGVHTFPAVLQSSGLYSLSSVVTVPSSSLGTQTYICNVNHKPSNTKVDKKVEPKSC |  |  |  |  |  |  | 3.17 | 0.05 | 3.18 | 0.05 | 28.6% | 83.4%
F9 (Fab, selection round 2; also called Fzd7-R2-F9) light: DIQMTQSPSSLSASVGDRVTITCRASQSVSSAVAWYQQKPGKAPKLLIYSASSLYSGVPSRFSGSRSGTDFTLTISSLQPEDFATYYCQQWYYGWHLITFGQGTKVEIKRTVAAPSVFIFPPSDSQLKSGTASVVCLLNNFYPREAKVQWKVDNALQSGNSQESVTEQDSKDSTYSLSSTLTLSKADYEKHKVYACEVTHQGLSSPVTKSFNRGECGGS heavy: EVQLVESGGGLVQPGGSLRLSCAASGFNISYSSIHWVRQAPGKGLEWVASIYPSYGYTYYADSVKGRFTISADTSKNTAYLQMNSLRAEDTAVYYCARYGYFGMDYWGQGTLVTVSSASTKGPSVFPLAPSSKSTSGGTAALGCLVKDYFPEPVTVSWNSGALTSGVHTFPAVLQSSGLYSLSSVVTVPSSSLGTQTYICNVNHKPSNTKVDKKVEPKSC |  |  |  |  |  |  | 3.11 | 0.06 | 3.16 | 0.06 | 50.3% | 88.3%

Second part, the binder after the results:

OD 450 [1] | OD 450 (Fc control protein [2]) | % population within the positive gate [3] | % population within the positive gate [4] | OD 450 [5] | OD 450 (Fc control protein [6]) | OD 450 [7] | OD 450 (Fc control protein [8]) | OD 450 [9] | OD 450 (Fc control protein [10]) | % population within the positive gate [11] | % population within the positive gate [12] | Binder
3.2 | 0.08 | 97.2% | 91.2% | 3.15 | 0.05 |  |  |  |  |  |  | B11 (Fab, selection round 2; also called Fzd7-R2-B11) light: DIQMTQSPSSLSASVGDRVTITCRASQSVSSAVAWYQQKPGKAPKLLIYSASSLYSGVPSRFSGSRSGTDFTLTISSLQPEDFATYYCQQYFYSSYSPITFGQGTKVEIKRTVAAPSVFIFPPSDSQLKSGTASVVCLLNNFYPREAKVQWKVDNALQSGNSQESVTEQDSKDSTYSLSSTLTLSKADYEKHKVYACEVTHQGLSSPVTKSFNRGECGGS heavy: EVQLVESGGGLVQPGGSLRLSCAASGFNISYSYMHWVRQAPGKGLEWVAYIYPSYSSTSYADSVKGRFTISADTSKNTAYLQMNSLRAEDTAVYYCARASYWALDYWGQGTLVTVSSASTKGPSVFPLAPSSKSTSGGTAALGCLVKDYFPEPVTVSWNSGALTSGVHTFPAVLQSSGLYSLSSVVTVPSSSLGTQTYICNVNHKPSNTKVDKKVEPKSC
 |  |  |  |  |  | 3.13 | 0.06 | 3.19 | 0.14 | 33.3% | 83.8% | G12 (Fab, selection round 2; also called Fzd7-R2-G12) light: DIQMTQSPSSLSASVGDRVTITCRASQSVSSAVAWYQQKPGKAPKLLIYSASSLYSGVPSRFSGSRSGTDFTLTISSLQPEDFATYYCQQWGYGALITFGQGTKVEIKRTVAAPSVFIFPPSDSQLKSGTASVVCLLNNFYPREAKVQWKVDNALQSGNSQESVTEQDSKDSTYSLSSTLTLSKADYEKHKVYACEVTHQGLSSPVTKSFNRGECGGS heavy: EVQLVESGGGLVQPGGSLRLSCAASGFNISYSSIHWVRQAPGKGLEWVASIYPSPGYTSYADSVKGRFTISADTSKNTAYLQMNSLRAEDTAVYYCARHGWYGLDYWGQGTLVTVSSASTKGPSVFPLAPSSKSTSGGTAALGCLVKDYFPEPVTVSWNSGALTSGVHTFPAVLQSSGLYSLSSVVTVPSSSLGTQTYICNVNHKPSNTKVDKKVEPKSC
 |  |  |  |  |  | 3.24 | 0.05 | 3.22 | 0.06 | 99.2% | 94.2% | E11 (Fab, selection round 2; also called Fzd7-R2-E11) light: DIQMTQSPSSLSASVGDRVTITCRASQSVSSAVAWYQQKPGKAPKLLIYSASSLYSGVPSRFSGSRSGTDFTLTISSLQPEDFATYYCQQYSYGYALFTFGQGTKVEIKRTVAAPSVFIFPPSDSQLKSGTASVVCLLNNFYPREAKVQWKVDNALQSGNSQESVTEQDSKDSTYSLSSTLTLSKADYEKHKVYACEVTHQGLSSPVTKSFNRGECGGS heavy: EVQLVESGGGLVQPGGSLRLSCAASGFNLSSYYMHWVRQAPGKGLEWVASIYPYYSYTYYADSVKGRFTISADTSKNTAYLQMNSLRAEDTAVYYCARYWSGFDYWGQGTLVTVSSASTKGPSVFPLAPSSKSTSGGTAALGCLVKDYFPEPVTVSWNSGALTSGVHTFPAVLQSSGLYSLSSVVTVPSSSLGTQTYICNVNHKPSNTKVDKKVEPKSC
